Columns and labels:
[1] = target: T1, TpoR-IL6ST chimeric receptor on HEK293T SIE-bla reporter cells (clone CR2-9) (human, UniProt P40238 26-527; P40189 651-918, limits assumed); experiment: cell-based or functional assay
T1 sequence (looked up): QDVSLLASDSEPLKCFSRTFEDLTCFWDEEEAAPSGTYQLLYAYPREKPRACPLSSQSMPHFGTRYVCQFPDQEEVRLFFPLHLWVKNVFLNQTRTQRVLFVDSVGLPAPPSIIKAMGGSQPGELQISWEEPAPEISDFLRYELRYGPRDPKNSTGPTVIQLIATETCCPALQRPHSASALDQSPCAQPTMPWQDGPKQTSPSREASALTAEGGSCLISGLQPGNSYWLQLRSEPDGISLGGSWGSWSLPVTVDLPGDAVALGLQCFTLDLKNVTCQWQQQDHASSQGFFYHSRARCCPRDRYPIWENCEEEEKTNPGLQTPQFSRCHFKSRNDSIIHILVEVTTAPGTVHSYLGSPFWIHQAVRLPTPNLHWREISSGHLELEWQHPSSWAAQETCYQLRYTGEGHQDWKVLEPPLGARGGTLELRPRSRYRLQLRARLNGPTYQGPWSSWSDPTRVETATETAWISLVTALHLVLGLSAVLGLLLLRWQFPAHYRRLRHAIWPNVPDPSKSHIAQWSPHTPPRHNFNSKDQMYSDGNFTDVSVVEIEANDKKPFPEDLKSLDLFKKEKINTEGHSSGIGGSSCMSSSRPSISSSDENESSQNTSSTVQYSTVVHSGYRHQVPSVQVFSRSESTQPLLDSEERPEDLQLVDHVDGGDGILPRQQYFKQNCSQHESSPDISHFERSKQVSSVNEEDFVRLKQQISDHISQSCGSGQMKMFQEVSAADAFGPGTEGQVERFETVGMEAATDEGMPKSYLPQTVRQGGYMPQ

[2] = target: T2, wild-type human TpoR on Ba/F3-hMpl cells (human, UniProt P40238 26-635); experiment: cell-based or functional assay
T2 sequence (looked up): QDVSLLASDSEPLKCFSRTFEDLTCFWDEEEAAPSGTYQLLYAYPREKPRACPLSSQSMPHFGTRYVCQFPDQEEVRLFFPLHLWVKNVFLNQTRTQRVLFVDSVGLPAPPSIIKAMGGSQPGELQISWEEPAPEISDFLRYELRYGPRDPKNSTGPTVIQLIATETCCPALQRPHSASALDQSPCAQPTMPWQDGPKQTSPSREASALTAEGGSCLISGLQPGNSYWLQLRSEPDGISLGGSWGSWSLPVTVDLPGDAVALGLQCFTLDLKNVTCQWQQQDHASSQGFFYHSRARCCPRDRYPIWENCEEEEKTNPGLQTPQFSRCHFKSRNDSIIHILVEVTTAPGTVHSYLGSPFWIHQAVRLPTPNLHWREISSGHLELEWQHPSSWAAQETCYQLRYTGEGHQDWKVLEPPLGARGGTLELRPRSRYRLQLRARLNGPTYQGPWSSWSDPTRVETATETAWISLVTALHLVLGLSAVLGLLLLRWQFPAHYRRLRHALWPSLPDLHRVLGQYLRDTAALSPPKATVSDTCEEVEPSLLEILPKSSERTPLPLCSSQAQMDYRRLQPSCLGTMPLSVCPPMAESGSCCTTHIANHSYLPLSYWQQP

[3] = target: T3, extracellular domain of hEpoR-his tag (human, UniProt P19235 25-250); experiment: pull-down: antibody mixed with hEpoR extracellular domain-his tag, captured on His-tag Dynabeads, bound antibody detected with anti-Fc:HRP (OD405nm); control is beads without EpoR
T3 construct: extracellular domain; also called EpoR ECD-his tag monomer protein; His-tagged monomeric EpoR; not shown: His tag
T3 sequence (looked up): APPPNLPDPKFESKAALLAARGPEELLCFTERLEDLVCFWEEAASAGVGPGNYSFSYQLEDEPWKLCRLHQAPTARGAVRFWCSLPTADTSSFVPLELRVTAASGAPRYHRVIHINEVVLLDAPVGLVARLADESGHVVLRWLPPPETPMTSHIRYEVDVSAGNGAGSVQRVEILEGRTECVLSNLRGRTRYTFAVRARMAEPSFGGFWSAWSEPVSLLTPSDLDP
Experimental: The single antibodies V-1 and V-3 and the bispecific antibody V-1/V-3 (BsAb) that were generated using “Knob-into-ole” technology were purified from HEK293F cells. (A) The purified proteins were analyzed using 7% Tris-Acetate gels with TA running buffer. (B) Antibody binding to the EpoR was tested by a “pull down” experiment. Different antibodies were mixed with the extracellular domain of hEpoR-his tag. The complexes were captured with His-tag Dynabeads and bound antibodies were detected with an anti-Fc:HRP antibody.

[4] = target: T3, extracellular domain of hEpoR-his tag; experiment: BLI (Octet Red), scFv-Fc captured on anti-human IgG sensors, EpoR ectodomain monomer titrated, 1:1 model; V-1; not competed by EPO
Experimental: (§1) Kinetic characterization using bio-layer interferometry (BLI). Experiments were performed using the Octet Red (Fortebio Inc.). The scFv Fc fusion proteins were captured with anti-Human IgG Capture (AHC) Biosensors (kinetics grade Cat# 18-5060). A titration series of the purified EpoR ectodomain monomer protein was measured against the immobilized scFv Fc in the association/dissociation cycle. The data set was fit to a 1:1 binding model to determine ka, kd and Kd.
(§2) Thus, both EPO and the bispecific antibody achieve the obligatory asymmetric binding to the EpoR that is necessary for full agonist activity, albeit in different ways. In the case of EPO, asymmetry is achieved by the use of two distinct interfaces (site 1 and site 2) that bind with different affinities to a single site in the homodimeric EpoR (Watowich, J. Invest. Med. 59:1067, 2011). By contrast, the heterodimeric bispecific antibody achieves asymmetry by using its two different binding specifies to interact with different sites on the EpoR (FIG. 6).

[5] = target: T3, extracellular domain of hEpoR-his tag; experiment: BLI (Octet Red), scFv-Fc captured on anti-human IgG sensors, EpoR ectodomain monomer titrated, 1:1 model; V-3; competed by EPO
Experimental: as §1, §2

B1: 3D9 TpoR agonist antibody (Fc fusion, not shown: a dimerising Fc or GST)
scFv: MAQVQLVQSGAEVRKVGSSVKVSCKASRDTFNTYGISWVRQAPGQGLEWMGGIIPIFGTADYAQKFRGRVTITADESTSTAYMELSSLRSEDTAVYYCARDRKLGGSDYWGQGTLVTVSSGGGGSGGGGSGGGGSDIVMTQSPSSVSASVGDKVTITCRASQGLGRWLAWYQQEPGKAPKLLIYAASTLQRGVPSRFSGSGSGTDFTLTISSLQPEDFATYYCQQSNSFPWTFGQGTKLEIKR
EC50, short-term fluorescence (FRET beta-lactamase) reporter assay [1]: ~0.01 nM
EC50, long-term proliferation assay (MTS) of Ba/F3-hMPL cells [2]: 0.005 nM

B2: heterodimeric bispecific antibody V-1/V-3 (bispecific antibody, V domains shown)
VH 1: MAQVQLVQSGAEVKKPGSSVKVSCKASGGTFSSYAISWVRQAPGQGLEWMGGIIPIFGTANYAQKFQGRVTITADESTSTAYMELSSLRSEDTAVYYCARDQGYYYGSGGLDYWGQGTLVTVSS
VL 1: DIQMTQSPSSLSASVGDRVTITCRASQSISSYLNWYQQKPGKAPKLLIYAASSLQSGVPSRFSGSGSGTDFTLTISSLQPEDFATYYCLQDYNYPLTFGGGTKVEIK
VH 2: MAQVQLVQSGAEVKKPGASVKVSCKASGYTFTSYGISWVRQAPGQGLEWMGWISAYNGNTNYAQKLQGRVTMTTDTSTSTAYMELRSLRSDDTAVYYCARGVAAALSYWGQGTLVTVSS
VL 2: QSALTQPASVSGSPGQSITISCTGTSSDVGAYNYVSWYQQHPGKAPKLMIYEVTKRPSGVPDRFSGSKSGNTASLTISGLQAEDEADYYCISFTASSTWAFGGGTKLTVLG
notes: Heterodimer of two scFv-Fc chains (human IgG1 Fc, hinge to CH3) made by knobs-into-hole engineering: T366Y in the CH3 of one monomer and Y407T in the other; also called BsAb; bispecific heterodimeric antibody
binding result [3]: binds

B3: EpoR antibody V-1 (scFv-Fc homodimer) (Fc fusion)
VH: B2 VH 1
VL: B2 VL 1
Kd [4]: 26 nM

B4: EpoR antibody V-3 (scFv-Fc homodimer) (Fc fusion)
VH: B2 VH 2
VL: B2 VL 2
Kd [5]: 45 nM
